Experimental data reported in publication PMC11011275, “Impact of Protein Nanoparticle Shape on the Immunogenicity of Antimicrobial Glycoconjugate Vaccines” (International Journal of Molecular Sciences, 2024).

Biological target: the molecule itself
Assay: negative-stain transmission electron microscopy; Hcp1cc nanotubes incubated with the reducing agent DTT (nanorings)

B1: Pseudomonas aeruginosa Hemolysin-coregulated protein 1 double mutant G90C + R157C (Hcp1cc) (natural protein)
chain: MAVDMFIKIGDVKGESKDKTHAEEIDVLAWSWGMSQSGSMHMGGGGGAGKVNVQDLSFTKYIDKSTPNLMMACSSGKHYPQAKLTIRKACGENQVEYLIITLKEVLVSSVSTGGSGGEDRLTENVTLNFAQVQVDYQPQKADGAKDGGPVKYGWNICQNVQA
notes: Hemolysin-coregulated protein 1 (Hcp1) of Pseudomonas aeruginosa with G90C and R157C; printed monomer mass 18.3 kD; 6 copies make one ring; without reducing agent the rings stack into disulfide-bonded nanotubes (up to 8-9 rings as purified, up to 14-18 rings after the oligomerization process); also called Hcp1cc nanoring; Hcp1cc nanotube; source: tangential flow filtration
  stoichiometry N: 6 monomers
